{"source": "the nanobody polyreactivity screen of Harvey et al. (2022)"}
{"assay": "yeast display, Sf9 membrane polyspecificity reagent, FACS + sequencing; frameworks hold sequencing errors", "outline": "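Genes from sorted yeast were amplified by colony PCR, read by MiSeq 2 × 250 sequencing and filtered on CDR length. These cells carried a synthetic nanobody library in Saccharomyces cerevisiae BJ5465 and were sorted by FACS into low and high (top ~1%) gates on anti-HA and streptavidin fluorescence. Polyreactivity is labelled according to the gate of origin.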"}
{"sequence": "QVQHVESGGGLVQAGGSLRLSCAASGSTFSRYTMGWYRQAPGKERELVAGISRRGGITYYADSVKGRFTISRDNAKNTVYLQMNSLKPEDTAVYYCARTDVYWYGYPYDYWGQGTQVTVSS", "polyreactivity (PSR sort gate)": "high polyreactivity"}
{"sequence": "QVQHVESGGGLVQAGGSLRLSCAASGSTFWYYDMGGYRQAPGKERELVAAISTRGDSTYYADSVKGRFTISRDNAKNTVYLQMNSLKPEDTAVYYCAKSRQSSGRVRFDYWGQGTQVTVSS", "polyreactivity (PSR sort gate)": "low polyreactivity"}
{"sequence": "QVQHVESGGGLVQAGGSLRLSCAASGSTIEDYAMGWYRQAPGKERELVAAISFSGARTYYADSVKGRFTISRDKAKNTVYLQMNSLKPEDTAVYYCNAVSGIVQRYDYWGQGTQVTVSS", "polyreactivity (PSR sort gate)": "high polyreactivity"}
{"sequence": "QVQHVESGGGLVQAGGSLRLSCAASGSTLGGYAMGWYRQAPGKERELVAAIRWRDGRTYYADSVKGRFTISRDNPKNTVYLQMNSLKPEDTAVYYCAAQYYLARVSFDYWGQGTQVTVSS", "polyreactivity (PSR sort gate)": "high polyreactivity"}
{"sequence": "QVQHVESGGGLVQAGGSLRLSCAASRFIFVTYAMGCYIQAPGKERELVAAITNSGGTTYYADSVKGRFTISRDNAKNTVYLQMNSLKPEDTAVYYCNKPYGAETAHREFDYWGQGTQVTVSS", "polyreactivity (PSR sort gate)": "low polyreactivity"}
{"sequence": "QVQHVESGGGLVQAGGSLRLSCAASVITFYGYTMGWYRQAPGKERELVARIRSRSTSTYYADSVKGRFTISRDNAKNTVDLQMNSLKPEDTAVYYCNADYTNPGSYRKYDYWGQGTQVTVSS", "polyreactivity (PSR sort gate)": "low polyreactivity"}
{"sequence": "QVQHVESGGGLVQAGGSLRLSCAATGRTFVYYAMGWYRQPPRKESELVASISSVGTTKYADSVKGRFTISRDNAKNTVYLQMNSLKPEDTAVYYCNNADDYSTVEFDYWGQGTQVTVSS", "polyreactivity (PSR sort gate)": "low polyreactivity"}
{"sequence": "QVQHVESGGGLVQAGGSLRLSCASSGFIFYKYVMGWYRQAPGKERELVAAINWSGGSTYYADSVKGRFTISRDNAKNTVYLQMNSLKPDVTAVYYCAALSQYRYDYWGQGTQVTVSS", "polyreactivity (PSR sort gate)": "high polyreactivity"}
{"sequence": "QVQHVESGGGLVQAGGSLRLSCASSGRIFSDYAMGWYRPAPGKERELVAAISRSGTRTYYADSVKGRFTISRDNAKNTVYFQMISLKPEDTAVYYCAAKTQSGRAGQEEDYWGQGTQVTVSS", "polyreactivity (PSR sort gate)": "high polyreactivity"}
{"sequence": "QVQHVESGGGLVQAGGSLRLSCPASGLTVGGYAMGWYRQAPGKERELVAAISLSGGRTYYADSVKGRFTISRDIPMITVYLLMNSLKPEVSAVYYCAASILVVYLREDYWGQGTQVTVSS", "polyreactivity (PSR sort gate)": "high polyreactivity"}
{"sequence": "QVQHVESGGGLVQAGGSLRLSCSASGITFGYYAMGWYRQAPGKERELVAAIRSSGGSTYYADSVKGRFTISRDNAKNTVYLQMKSLKPEDTAVYYCNARYRKSSRPGYEPFERYYWGQGTQVTVSS", "polyreactivity (PSR sort gate)": "high polyreactivity"}
{"sequence": "QVQHVESGGGLVQAGGSLRLSCSASGITLPGSAIGWYRQAAGKVREFVAAISTSGGSTYYADSVKGRFTISRDYAKNTVYLQMNSLKPEDTAVYYCNARLVYYSYEEMDYWGQGTQVTVSS", "polyreactivity (PSR sort gate)": "low polyreactivity"}
{"sequence": "QVQHVESGGGLVQAGGSLRLSSAASGFTFSRNAMGWYRQAPGKERELVAAIDSGGSTDYADSVKGRFTISRDNAKNTVYLQMNSLKPEDTAVYYCNVDGYYLFVRGYEYWGQGTQLTVSS", "polyreactivity (PSR sort gate)": "low polyreactivity"}
{"sequence": "QVQHVESGGGLVQAGGSLRLSSAASGNTINSNAMGWYRQSPGKEREFVAAISGSGSSTYYADSVKGRFTISRDYAKNTVYLQMNSLNPEDTAVYYCAARWGYFGSFDYWGQGTQVTVSS", "polyreactivity (PSR sort gate)": "high polyreactivity"}
{"sequence": "QVQHVESGGGLVQAGGSLRLSSAASGRTFFRSAMGWYRQAPGKERELVAAISSRGGSTYYADSVKGRFTISRDNAKNTVYLHMNSLKPEDTAVYYCNAAAFINFILYDYWGQGTQVTVSA", "polyreactivity (PSR sort gate)": "high polyreactivity"}
{"sequence": "QVQHVESGGGLVQAGGSLRLSSAASGRTYWPNAMGWYRQAPGKERELVAAISSGGSTNYADSVKGSFTISRDNAKNTVYLQMNSLKPEDTAVYFWSADGQGDKYDYYGHNYWGQGTHVTVSS", "polyreactivity (PSR sort gate)": "low polyreactivity"}
{"sequence": "QVQHVESGGGLVQAGGSLRLSSAASGSIIGYYAMGWYRQAHGKERELVAAITWSGGRTYYADSVKGRFTISRDNAKNTVYFQMNSLKPEDTAVYYSNAANSRSAYYNWGHGTQVTVSS", "polyreactivity (PSR sort gate)": "high polyreactivity"}
{"sequence": "QVQHVESGGGLVQAGGSQRLSCAASGSTLYYNAMGWYRQAPGKEREFVAGISSSGGRTYYADSVKGRFTISRDNAKNTVYLQMNSLKPEDTAVYYCARVGAIPSRYGYWGQGTQVTVSS", "polyreactivity (PSR sort gate)": "high polyreactivity"}
{"sequence": "QVQHVESGGGLVQAGRSLRLSCAASGSIFRDNDMGWYRQATGKEREFVAAINWSGVSTYYADSVKGRFTISRDNAKNTVYLQMNSLKPEDTAVSYCAAGYLKWRRYNYWGQGTQVTVSS", "polyreactivity (PSR sort gate)": "high polyreactivity"}
{"sequence": "QVQHVESGGGLVQAGRSLRLSCAASGSIVGNNAMGWYRQAPGKERELVAVITDGGNTYYADSVKGRFTISRDNAKNTVYLEMNSLKPEDTAVYYCNADWWGDSDYWGQGTQVTVSS", "polyreactivity (PSR sort gate)": "low polyreactivity"}
{"sequence": "QVQHVESGGGLVQAGRSLRLSCAATGRTFGSNAMGWYRQAPGKERELVAAISLRGGRTYYADSVKGRFTISRDNAKNTVYLQMNSLKPEDTAVYYCNAVHYLYGARSRLTYDYWGQGTQVTVSS", "polyreactivity (PSR sort gate)": "high polyreactivity"}
{"sequence": "QVQHVESGGGLVQARGSLRLSCAASASIYPSYAMGWYRQAPGKERELVAVINSGGSTYYADSVKGRFTISRDNAKNTVYLQMNILNPEDTAGYYCAAYRRRYPRFDYWGPGTQVTVSS", "polyreactivity (PSR sort gate)": "high polyreactivity"}
{"sequence": "QVQHVESGGGLVQARGSLRLSCAASGSIFFNTMGWYSQAPGKERELVAAITWSGGRTYYADSVKGRFTISRDNAKNTVYLQMNSLKPEDTAVYYCAKDQGSWRYDYWGLGTQVTVSS", "polyreactivity (PSR sort gate)": "low polyreactivity"}
{"sequence": "QVQHVESGGGLVQARGSLRLSCSASGGTFSVYPMGWSRQAPVKERELLADISWSDASTYYADSVKGRFTISRDNAKNTVYLQMNSLKPEDTAVYYCAVSRQSGKGGSKELNDYWVQGTQVTVSS", "polyreactivity (PSR sort gate)": "low polyreactivity"}
{"sequence": "QVQHVESGGGLVQAVGSLRLSCAASGIIFPRTAMGWYGQAPGKERELVAGISRSGGSTSYADSVKGRFTISRDNAKNTVYLQMNSRKPEDTAVYYCATRGHPFKKSYGSWGQGTQVTVSS", "polyreactivity (PSR sort gate)": "high polyreactivity"}
{"sequence": "QVQHVESGGGLVQAVGSLRLSCSASGITFHYYTMGWYRQAPGKEREFVAAISKSGGRTYYADSVKGRFTISRDKAKNTVYLQMNSLKPEDTAVYYCAGLYYFNGDYWGEGTQVTVSS", "polyreactivity (PSR sort gate)": "high polyreactivity"}
{"sequence": "QVQHVESGGGLVQEGGILRLSCAASGFTYRTYAMGWSRQAPGQESELVADISGSGGSTYYADSVKGRFTISRDNAKNTVYLQMNSQKPEDTAVFYCAADDASWSNLGYEYWGQGTQVTVSS", "polyreactivity (PSR sort gate)": "high polyreactivity"}
{"sequence": "QVQHVESGGGLVQEGGSLRLSCAASARTFPFYAMGWYRQATGKERELVAAITRSDDSPYYADSVKGRFTFSRDNAKNTVYVQMHSLKPEDIAVYYCAADVEGLTVESHVYRVGFDYCGQGTQVTVSS", "polyreactivity (PSR sort gate)": "low polyreactivity"}
{"sequence": "QVQHVESGGRLVQAGGILRLSCAASGRIFQSNAMGWYRQTPGKERELVAGITKRGGSTYYADSVKGRFTISLDYAKNTVYLQMNSLTPEDTAVYYCAKSWSYDPRYGSWGQGTQVTVSS", "polyreactivity (PSR sort gate)": "high polyreactivity"}
{"sequence": "QVQHVESGGVLVQAGGSLRLSCAASGSTFGGYAMGWYRQAPGKERELVASISRRGGSTYYADSVKGRFTLSRDNAKNTFYFHMNSLKPEDTAVYYCNAAFLRQVWDGYNYWGQGSQVTVSS", "polyreactivity (PSR sort gate)": "high polyreactivity"}
{"sequence": "QVQHVESGRCLFQAGGSLRLSCAASGSTFYNNALGWYRQAPGKERELVAVITDSGGRTYYADSVKGRFTISRDNAKNSVKLQMNSLKPEDCAVYYCAADIGYDVYNDYDYWGQGTQVTVSS", "polyreactivity (PSR sort gate)": "low polyreactivity"}
{"sequence": "QVQHVESGRGLVQAGGSLRLSCAASGITFNQYAMGWYRQAPGKERELVAGISYSGGSTYYADSVKGRFTISRDNAKNTVYFQMISLKPEDTAVYYCAKRSPFTLDYWGQGTQVTVSS", "polyreactivity (PSR sort gate)": "high polyreactivity"}
{"sequence": "QVQHVESGRGLVQAGGSLRLSCAASGRIFQYYTMGRYRQAPGKERELVAAISRSGSSTYYADSVKGRFTISRDNAKNTVYLQMNSLKPEDTAVYYCAAVSEYYKGYDYWGQGTQVTVSS", "polyreactivity (PSR sort gate)": "high polyreactivity"}
{"sequence": "QVQHVESGVGLVQAGGSLRLSCAASGSTFVPYAMGWYRQAPGKDRELVAAISSAGSTNYADSVKGRFTISRDNAKNTVYLQMNSLKPEDTAVYYCARDIQDTYEFDYWGQGTQVTVSS", "polyreactivity (PSR sort gate)": "low polyreactivity"}
{"sequence": "QVQHVESGVGLVQAVGSLRLSCAASGLTIDYNAMGWDRQAPVKERELVAAISWSGGSTYYADSLKGRFTISRDNAKNTVYLQMNSLKPEDNAVYYCNALPHIVIGGIICYEYWGQGTQVTVSS", "polyreactivity (PSR sort gate)": "high polyreactivity"}
{"sequence": "QVQHVESRGGIVQAGGSLRLSCAASGFILYFNAMGWYRQAPGKERELVAAITSDGGSTYYADSVKGRFTISRDNAKNTVYLQMNSLKPEDTAVYYCAADASTWYTEEYWGQGTQVTVSS", "polyreactivity (PSR sort gate)": "low polyreactivity"}
{"sequence": "QVQHVESRGGLLQAGGSLRLSCAASGRTLSFYGMGWYRQPPGKERELVAAISSSGSRTYYADSVKGRFTISRDNAKNTVYLQMNSLKPEHTAVYYCNALRIYHHYEYDYWGQGTQVTVSS", "polyreactivity (PSR sort gate)": "high polyreactivity"}
{"sequence": "QVQHVESRGGLVQAGGSLRLSCAASGLILSGYTMGWYRPAPGKERELVAAISRSGGSTYYADSVKGRFTISRDNAKNTVYLQMNSLKPEDTAVYYCAKVPIYRYGVWAMNYWGQGTQVTVSS", "polyreactivity (PSR sort gate)": "high polyreactivity"}
{"sequence": "QVQHVESRGGLVQAGGSLRLSCDASGSTFVTYAMGWYRQAPGKERELVAAISRSGGSTYYADSVKGRFTISRDNAKNTVYLQMNSLKPEDTAVYYCAARDGYGATGHDYWGQGTQVTVSS", "polyreactivity (PSR sort gate)": "low polyreactivity"}
{"sequence": "QVQHVESVGCLVQAGGTLRLSCASSVRTFLWYTMGWYRQAPGKKRELVATITSGGRTNYADSVKGRFTISRDNAKNTVYLQMNSLNPEDTAVYYCARLGAYTGRYDYWGQGTQVTVSS", "polyreactivity (PSR sort gate)": "high polyreactivity"}
{"sequence": "QVQHVESVGGLVQAGGRLRLSSAASGSIFSYNAMGWYRQAPVKERQLVARITRGGDGTYYADSVMVRFTISRDNAKNTVYLQMNSLKPEDTAVYYCAGTPYWYHLRVEGGYWGQGTQVTVSS", "polyreactivity (PSR sort gate)": "low polyreactivity"}
{"sequence": "QVQHVESVGGLVQAGGSLRLSCAASGSTFARYVMGWYRQAPGKEWELVAVISRSGGSTYYADSVKGRFTISRDNAKNTVYLQMNSLKPEDTAVYYCNARSSNYWWYYYWGQGTQVTVSS", "polyreactivity (PSR sort gate)": "high polyreactivity"}
{"sequence": "QVQHVESWGGIVQARGSLRLSCAASGSTFSYNALGWYRQPPGKERELVAALTCSGASTYYAYSVKGRFTISRDKAKNTVYLQLSSMNPDDTAVYYCNAPDGPGPNAYYEFDYWGQGTQVTVSS", "polyreactivity (PSR sort gate)": "low polyreactivity"}
